# Assay: yeast display, Sf9 membrane polyspecificity reagent, FACS + sequencing; frameworks hold sequencing errors
# In short: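 Galactose-induced (36–48 hours) yeast carrying a synthetic nanobody display library were exposed to 10% biotinylated, detergent-solubilized Sf9 membrane reagent at 4 °C for 1 hour. FACS followed streptavidin microbead enrichment, using low and high (top ~1%) gates for expression (anti-HA) and reagent binding (streptavidin). Colony PCR, MiSeq 2 × 250 sequencing and CDR-length filtering followed. Labels for polyreactivity reflect the gate of origin.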
row,Sequence,polyreactivity (PSR sort gate)
1,QVQLVESGGGLVQAGGSLRLGCAASGGTITSYAMGWYRQAPGKERELVAAITVSGSSTYYADSVKGRFTISRDNAKNTVYLQMNSLKPEDTAVYYCAARWRRFQFDYWGQGTQVTVSS,high polyreactivity
2,QVQLVESGGGLVQAGGSLRLGCAASGITFTPYAMGWYRQAPGKERELVAAISWRGGSTYYADSVKGRFTISRDNAKNTVYLQMNSLKPEDTAVYFCAKDGRGYGRYSRYYTGDYWGQGTQVTVSS,low polyreactivity
3,QVQLVESGGGLVQAGGSLRLICAACGFTLTGYTMGWYRQAPGKERELVAAITSRGGTTYYADSVKGRFTISRDNAKYTVYLQMNSLKPEDTAVYYCNVVYPYLEYDYWGQGTQVTVSS,high polyreactivity
4,QVQLVESGGGLVQAGGSLRLICAASGATFYFYAMGWYREAPGKERELVAAISKRGTSTYYADSVKWRFTISRDNAKNTVYLQLTSLKPEDTAVYFCAADAPRGYNYWGQGTQVTVSS,high polyreactivity
5,QVQLVESGGGLVQAGGSLRLICAASGFIFDWNTMGWYRQAPGKEREMVAAISWSGAGTYYADSVKGRFTISRDNAKNTVYLQMNSLKPEDTAVYYCNAVRANGQASQEGEYWGQGTQVTVSS,high polyreactivity
6,QVQLVESGGGLVQAGGSLRLICAASGFIFRNYARGWYRQAPGKERELVAAITRSGTSTYYADSVKGRFTISRDNAKNTVYLQMNSLKPEDTAVYYCNAGWGLRLSWLGNYWGQGTQVTVSS,high polyreactivity
7,QVQLVESGGGLVQAGGSLRLICAASGFIFTPYAMGWYRQAPGKERELVAAITWRGARTYYADSVKGRFTISRDNAKNTVYLQMNSLKPEDTAVYYCAVAYWNRQSLFRMYYWGQGTQVTVSS,high polyreactivity
8,QVQLVESGGGLVQAGGSLRLICAASGFIFYPYAMGWYRQAPGKERELVAVITSGGRTYYADSVKGRFTISRDNAKNTVYLQMNSLKPEDTAVYYCNADTFQWWDIADVYVIVKYGYWGQGTQVTVSS,low polyreactivity
9,QVQLVESGGGLVQAGGSLRLICAASGFIITRNAMVWYRPAPGKERELGAVISYGGGSTYYADSVKGRFTISRDNAKNTVYLQMNSLKPEDTAVYYCAADPTWRYYYHYTYYYWGQGTQVTVSS,high polyreactivity
10,QVQLVESGGGLVQAGGSLRLICAASGFILKYNAMGWYRQAPGKERELVAAISSNGGRTYYADSVKGRFTISRDNAMNTVYLQMNSLKPVDTAVYYCAAGRLQPVLGGYWGQGTQVTVSS,low polyreactivity
11,QVQLVESGGGLVQAGGSLRLICAASGFTFAYYAMGWYRQAPGKERELVAAISSGGSTYYADSVKGRFTISRDNAKNTVYLQMNSLKPEDTAVYYCAARGGRPLIHHWPWYSWKYDYWGQGTQVTVSS,low polyreactivity
12,QVQLVESGGGLVQAGGSLRLICAASGFTFLTNAMGWYRQAPGKERELVAAISSGGNTNYADSVKGRFTISRDNAKNTVYLQMNSLKPEDTAVYYCAADNDYLSSQVSYYYWGHGTQVTVSS,low polyreactivity
13,QVQLVESGGGLVQAGGSLRLICAASGFTFSVYAMGWYRQAPGKERELVAAITWRGGSTYYADSVKGRFTISRDNAKNTVYLQMNSLKPEDTAVYYCAVLYPKYGKRYGYWGQGTQVTVSS,high polyreactivity
14,QVQLVESGGGLVQAGGSLRLICAASGFTFVANAMGWYRPAPGKERELVAVIDWDEGSTYYADSVKGRFTISRDNAKNTVYLQMNSLKPEETAVYYCNADGYSPDRYDYYYRYYYWGQGTQVTVSS,low polyreactivity
15,QVQLVESGGGLVQAGGSLRLICAASGFTFWNYAMGWYRQAPGKERELVAAITWSGGITYYADSVKGRFTISRDNAKNTVYLQMNSLKPEDTAVYYCAAYPQYQPEWYYIEYDYWGQGTQVTVSS,low polyreactivity
16,QVQLVESGGGLVQAGGSLRLICAASGFTFYLYTMGWYRQAPGKERELVAAISWRGGGTYYADSVKGRFTISRDNAKNTVYLQMNSLKPEDTEVYYCAAYWRRRLVYYYWGQGTQVTVSS,high polyreactivity
17,QVQLVESGGGLVQAGGSLRLICAASGFTFYYKAMGWYRPAHGKERELVAAISTGGSTYYADSVKGRFTISRDNAKNTVYLQMNSLKPEDTAVYYCARSLWTGGYGYYYWGQGTQVTVSS,high polyreactivity
18,QVQLVESGGGLVQAGGSLRLICAASGFTLGSNAMGWYRQAPGKERELVAAMSKSGGSTYYADSVKGRFTISRDNAKNTVYLQMNSLKPEDTAVYYCAARYLYQGYRYDYWGQGTQVTVSS,high polyreactivity
19,QVQLVESGGGLVQAGGSLRLICAASGGIFGINAMGWYRPSPVKERELVAAINLSGGRTYYADSVKGRFTISRDNAKKTVYLLMNSLKPEDSAVYYCAAYYGYSLYGHYEYWGQGTQVTVSS,high polyreactivity
20,QVQLVESGGGLVQAGGSLRLICAASGGIFGSYAMGWYRQAPGKEREFVAAIRYGSGSTYYADSVKGRFTISRDNAKNTVYLQMNSLKPEDTAVYYCATEYWGVYGYGFIYDYWGQGTQVTVSS,low polyreactivity
21,QVQLVESGGGLVQAGGSLRLICAASGGTFYDYAMGWYRQAPGKERELVAAISASGDSTYYADSVKGRFTISRDNAKNTVYLQMNSLKPEDTAVYSCAAEFTAFDGFDYWGQGTQVTVSS,low polyreactivity
22,QVQLVESGGGLVQAGGSLRLICAASGIIFAWYVMGWSRQAPGKERELVAAITQSGGSTFYADSVKGRFTISRDNAKNTVYLQLNSLKPEDTAVYYCNTDYFFNVPEMDSWGQGTQVTVYS,low polyreactivity

row,Sequence,polyreactivity (PSR sort gate)
1,QVQLVESGGGLVQAGGSLRLICAASGIIFFRYAMGWYRQAPGKERELVASIRAIGGSTSYADSVKGRFTISRDNAKNTVYLQMNSLKPEDTAVFYCAARQNYRYGYWGQGTQVTVSS,high polyreactivity
2,QVQLVESGGGLVQAGGSLRLICAASGIIFLYYAMGWYRQAPGKEWELVAAISSGVSTYYADSVKGRFTISRDNAKNTVYLQLNSLKPEDTAVYYCNADYYQLNSGMYYWGQGTQVTVSS,low polyreactivity
3,QVQLVESGGGLVQAGGSLRLICAASGIIFYGYGMGWYRQARGKERELVAAITRSGGRTYYADSVKGRFTISRDNAKNTVYLQMNSLKPEDTAVYYCAAKRRTGGNGYWGQGTQVTVSS,high polyreactivity
4,QVQLVESGGGLVQAGGSLRLICAASGIIFYVNAMGWYRQAPGKERELVAAITRGGTTYYADSVKGRFTISRDNAKNTVYLQMNSLKPEDTAVYYCAARLRYTTGIYYYWGQGTQVTVSS,high polyreactivity
5,QVQLVESGGGLVQAGGSLRLICAASGIIFYVYAMGWYRQAPGKERELVAAISFRGTSTYADSVKGRFTISRDNAKNTVYLQLNSLKPEDTAVYYCAVTGFDVLWPSLGGVLDYWGQGTQVTVSS,low polyreactivity
6,QVQLVESGGGLVQAGGSLRLICAASGITFYRNARGWYRQAPGKERELVAAITSGTSTYYADSVKGRFTISRDNAKFTVYLQMISLKPEDTAVYYCAKRTPPGYYGFDYWGQGTQVNVSS,low polyreactivity
7,QVQLVESGGGLVQAGGSLRLICAASGLIFSYYAMGWYRQAPGKERELVAAISRGGSTNYADSVKGRFTISRDNAKNTVYLQMNSLKPEDTAVYYCAARFVVRRDYGYWGQGTQVTVSS,high polyreactivity
8,QVQLVESGGGLVQAGGSLRLICAASGLIFVYYAMGWYRQAPGKERELVAAIDWSSTRTYYADSVKGRFTISRDNATNTVYLQMNSLKPEDTAVYYCAAESRYLSWFDYWGQGTQVTVSS,high polyreactivity
9,QVQLVESGGGLVQAGGSLRLICAASGLTFKQYVMGWYRQAPGKERELVAAIHNGTSTYYADSVKGRFTISRDNAKNTVYLQMNSLKPEDTAVYYCAADGLGFNTYDYWGQGTQVTVSS,low polyreactivity
10,QVQLVESGGGLVQAGGSLRLICAASGLTFTYYAMGWYRQAPGKERELVATISSSGRTNYADSVKGRFTISRDNAKNTVYLQMNSLKPEDTAVYYCAATLYHYWYADFDYWGQGTQVTVSS,high polyreactivity
11,QVQLVESGGGLVQAGGSLRLICAASGLTYFSYAMGWYRQAPGKQREFVAAITRRGGRTYYADSVKGRFTISRDNAKYTVYLQMNSLKPEDTAVYYCNAVPVLISVYRMEYWGQGTQVTVSS,high polyreactivity
12,QVQLVESGGGLVQAGGSLRLICAASGNIFGAYAMGWNIQAPGKERELVAVIRFDDGSTYYADSVKGRFTISRDNAKNTVYLQMNSLKPEDTAVDFCAVRLYLEMDYWGQGTQVTVSA,high polyreactivity
13,QVQLVESGGGLVQAGGSLRLICAASGNTFRYYAMGWYRQAPGKERELDAAINSRGGTTSYADSVKGRFTISRDNAKNTVYLQMNSLKPEDTAVYYCAARSYYRGTFYPYYYWGQGTQVTVSS,high polyreactivity
14,QVQLVESGGGLVQAGGSLRLICAASGNTIIRYAIGWFRQAPGKERELVAAISYSGGRTYYADSVKGRFTISRDNAKNTVYLQMNSVKPEDTAVYYCNAASRYGGDYWGQGTQVTVSS,low polyreactivity
15,QVQLVESGGGLVQAGGSLRLICAASGRIFGANAMGWYIQAPGKERELVAAISRTGGSKYYADSVKGRFTISRDNAKNTVYLQMNSLKPEDTAVYYCNAVYRYAHPMEYWGQGTQVTVSS,high polyreactivity
16,QVQLVESGGGLVQAGGSLRLICAASGRIFGGNAMGWYRQAPGKERELVAPISRSGGSTYYADSVKVRFTISLDNAKNTVYLQMNSLIPEDTAVYYCAAVRRPGTGKYTEYDYWGQGTQVTVSS,high polyreactivity
17,QVQLVESGGGLVQAGGSLRLICAASGRIFGLYAMGWYRQAPGKERELVAGITYSGGTTYYADSVKGRFPISRDNAKNTVYLQMNSLKPEDTAVYYCNKRWYYQYGQSHVRLYDYWGQGTQVTVSS,high polyreactivity
18,QVQLVESGGGLVQAGGSLRLICAASGRIFGYYVMGWSRQSPGKERQLVAAIRSSADSTYYADSVKGRFTISRDNAKNTVYLQMNSLKPEDTAVYYCAAQSPAYYTKSYWGQGTQVTVSS,low polyreactivity
19,QVQLVESGGGLVQAGGSLRLICAASGRIFHYYAMGWYRQAPGKERELVAAIRWSGGDTYYADSVKGRFTISRDNAKNTVYLQMNSLKPEDTAVYYCAAYDHVYEYDYWGQGTQVTVSS,low polyreactivity
20,QVQLVESGGGLVQAGGSLRLICAASGRIFITNTMGWYRQAPGKETELVAAISRTGGSTYYADSVKGRFTISRDNAKNTVYLQMNSLKPEDTAVYFCNAVVRGYAQGAGFDYWGQGTQVTVSS,high polyreactivity
21,QVQLVESGGGLVQAGGSLRLICAASGRIFKWYAMGWYRQAPGKERELVATITWSGGSTYYADSVKGRFTISRDNAKNTVYLQMNSLKPEDTAVYNCNADTWLALPGFDYWGQGTQVTVSS,high polyreactivity

# Source: the nanobody polyreactivity screen of Harvey et al. (2022)
